Usually stoichiometry N stands for the number of molecules, sites or subunits per partner or assembly.

Experimental findings from article PMC3332085 are described below.

Where two headings read alike, the source gives them in different places.

Holding throughout (assay): SAXS
The target of assay [1] is wild type yeast frataxin (Yfh1wt; residues 52-174) (S. cerevisiae) (UniProt Q07540).
Assay [2] shares this target. The source holds these as a separate data set.
The target is the same in assay [3]. The source holds these as a separate data set.

For “wild type yeast frataxin (Yfh1wt; residues 52-174) (from UniProt Q07540 52-174) (natural protein)”, in assay [1], the distribution, hexamer turned out to be 13%; the distribution, monomer stood at 54%; the distribution, trimer came to 33%. Besides, in assay [2], the distribution, 42-mer was 11%; the distribution, hexamer is 6%; the distribution, monomer is 26%; the distribution, trimer was 57%. Moreover, in assay [3], the distribution, hexamer turned out to be 9%; the distribution, monomer came to 67%; the distribution, trimer amounted to 24%; the stoichiometry N came to 2.
